{"source": "paper PMC9210341", "about": "(2022)", "biological_target": "SARS-CoV-2 prototype receptor binding domain (residues 319-541) (SARS-CoV-2, UniProt P0DTC2 319-541)", "test": "SPR", "note": "Several values for one entry are separate records, joined by “and”; a condition that tells them apart may be missing. Identical values can stand only once.", "data": [{"binder": "equine angiotensin converting enzyme 2 (residues 19-615) (receptor) STTEDLAKTFLEKFNSEAEELSHQSSLASWSYNTNITDENVQKMNEAGARWSAFYEEQCKLAKTYPLEEIQNLTVKRQLQALQQSGSSVLSADKSKRLNEILNTMSTIYSTGKVCNPSNPQECLLLEPGLDAIMENSKDYNQRLWAWEGWRSEVGKQLRPLYEEYVVLKNEMARANNYEDYGDYWRGDYEAEGPSGYDYSRDQLIEDVERTFAEIKPLYEHLHAYVRAKLMDTYPSHINPTGCLPAHLLGDMWGRFWTNLYSLTVPFGQKPNIDVTDAMVDQSWDAKRIFEEAEKFFVSVGLPNMTQGFWENSMLTEPGDGRKVVCHPTAWDLGKGDFRIKMCTKVTMDDFLTAHHEMGHIQYDMAYAVQPYLLRNGANEGFHEAVGEIMSLSAATPNHLKAIGLLPPDFYEDSETEINFLLKQALTIVGTLPFTYMLEKWRWMVFKGEIPKEEWMKKWWEMKREIVGVVEPVPHDETYCDPAALFHVANDYSFIRYYTRTIYQFQFQEALCQTAKHEGPLHKCDISNSTEAGQKLLQMLSLGKSEPWTLALERIVGVKNMDVRPLLNYFEPLFTWLKDQNKNSFVGWSTNWSPYAD", "values": [{"measurement": "Kd", "result": "87.7 nM and 200 nM"}]}]}
